Test results as given in patent US7041871.

Biological target: native human CD4 on cells (SupT1 T cell line; human PBL/PBMC) (human) (UniProt P01730)
Test: ratio of BIAcore Ka on rCD4 to flow cytometry Ka on nCD4

- Ration of Ka (rCD4/nCD4): 6.1
Substance: chimeric Leu3a (antibody)
